These results are taken from article PMC8364233.

Series [1] has as its target MBP-LjNLP4 (564–976) (Lotus japonicus). The experiment in a line: SEC-MALS. In general terms: SEC sorts molecules by how far they enter the pores of the column.
For series [2], the target named is MBP-LjNIN (551–878) (Lotus japonicus). The experiment in a line: SEC-MALS.
The next series has as its target MBP-LjNIN (551-878) (Lotus japonicus, UniProt Q9S7B1 551-878). As to the kind of experiment: EMSA. On the technique in general: Mobility shift assays separate free from complexed probe on a gel.
For a further series, the target named is MBP-LjNLP4 (564-976) (Lotus japonicus, UniProt A0A2Z5V8A6 564-976). The experiment in a line: EMSA.
Series [3] deals with MBP-LjNLP4 (564-976);Trx-His-LjNIN (551-878) (Lotus japonicus;Lotus japonicus, UniProt A0A2Z5V8A6;Q9S7B1 564-976;551-878, |). As to the kind of experiment: EMSA.

Regarding “MBP-LjNLP4 (564–976) (domain or fragment)”, the stoichiometry N (as a rule, a count of units in the complex or per binding partner) in series [1] is 2. As to “MBP-LjNIN (551–878) (domain or fragment)”, in series [2], the stoichiometry N was 2.

B1: CLE-RS2pro (dsDNA)
DNA 1: TGAGTTCTGACCCTTAAGCCTTGGAAAGGACAGTCATG
DNA 2: CATGACTGTCCTTTCCAAGGCTTAAGGGTCAGAACTCA
Take B1: the binding result with MBP-LjNIN (551-878) and with MBP-LjNLP4 (564-976) was “binds” in each case.

B2: LjNIR1pro (dsDNA)
DNA 1: CAAACACGACCCTTTGTCACAACCAAAGGTCCATTGTA
DNA 2: TACAATGGACCTTTGGTTGTGACAAAGGGTCGTGTTTG
With B2, the binding result in the series with MBP-LjNIN (551-878) and in the series with MBP-LjNLP4 (564-976) was “binds” throughout.

B3: LjNF-YBpro (dsDNA)
DNA 1: TTTACTTGTATCTTTAGAGCTTTCCAAGGGATATTTCA
DNA 2: TGAAATATCCCTTGGAAAGCTCTAAAGATACAAGTAAA
On to B3, for which the figures for the binding result (with MBP-LjNIN (551-878); in series [3]; in the series with MBP-LjNLP4 (564-976)) were “binds”, “binds” and “no binding”, respectively.
